From US20240158497A1 (published 2024)
Each block holds one binder with its values, some of them ahead of it.

What was measured:
[1] = target: T1, human gp130 extracellular domain (E23-E619) with C-terminal mouse IgG2a Fc (human); test: blocking ELISA, 2.5 nM hGP130-mFc on plate-bound CNTFR/CNTF complex; * below lower limit of quantitation 1.25E-09M
T1 construct: dimeric; also called hGP130-mFc; human GP130-mFc
T1 chain: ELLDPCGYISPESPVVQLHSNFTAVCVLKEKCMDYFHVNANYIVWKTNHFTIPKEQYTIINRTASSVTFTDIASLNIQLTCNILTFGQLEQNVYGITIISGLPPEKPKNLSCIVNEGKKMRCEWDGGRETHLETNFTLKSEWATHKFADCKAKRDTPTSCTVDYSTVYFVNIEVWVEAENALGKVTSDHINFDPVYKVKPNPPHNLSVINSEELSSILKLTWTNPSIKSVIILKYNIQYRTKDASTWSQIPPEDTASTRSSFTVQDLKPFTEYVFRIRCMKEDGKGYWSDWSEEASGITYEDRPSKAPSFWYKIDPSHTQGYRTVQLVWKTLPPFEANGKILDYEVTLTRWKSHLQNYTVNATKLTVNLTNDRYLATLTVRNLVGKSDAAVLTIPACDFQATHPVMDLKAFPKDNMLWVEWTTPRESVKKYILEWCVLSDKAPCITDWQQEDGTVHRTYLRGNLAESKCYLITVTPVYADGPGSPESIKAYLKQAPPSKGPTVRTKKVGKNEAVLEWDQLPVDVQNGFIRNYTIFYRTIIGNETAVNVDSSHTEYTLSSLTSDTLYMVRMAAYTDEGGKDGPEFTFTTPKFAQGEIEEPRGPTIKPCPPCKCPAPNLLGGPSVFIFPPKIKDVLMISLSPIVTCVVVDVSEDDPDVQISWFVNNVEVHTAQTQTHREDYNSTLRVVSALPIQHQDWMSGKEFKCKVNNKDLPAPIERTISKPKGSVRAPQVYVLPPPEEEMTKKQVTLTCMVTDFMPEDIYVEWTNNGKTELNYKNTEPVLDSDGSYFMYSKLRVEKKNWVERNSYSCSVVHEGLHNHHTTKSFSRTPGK
Protocol: The experiment was carried out using the following procedure. Human CNTFRα was coated at a concentration of […] in HBSS on a 96-well microtiter plate overnight at 4° C. […] Human CNTF at a concentration of 1 μg/ml in HBSS was added to the plate bound CNTFRα for 1 hour at room temperature. In separate dilution plates, a constant amount of 2.5 nM of human GP130-mFc protein was titrated with antibodies ranging from 3.4 pM to 200 nM in serial dilution and with no antibody present. These solutions were incubated for 1 hour at room temperature (RT) and subsequently transferred to the microtiter plates with CNTFRα/CNTF complex without washing. The plates were incubated for 2 hours at RT, washed with PBST buffer, and plate-bound hGP130-mFc was detected with an anti-mFc polyclonal antibody conjugated with horseradish peroxidase (HRP) (Jackson ImmunoResearch Inc). Samples were developed with a TMB solution (BD Biosciences, substrate A and B mixed at 1:1 ratio as per manufacturer's instructions) to produce a colorimetric reaction and then neutralized with 1M sulfuric acid before measuring absorbance at 450 nm on a Victor X5 plate reader.
Data analysis was performed using a sigmoidal dose-response model within Prism™ software (GraphPad). […]

[2] = target: T2, extracellular domain of human LEPR, GPI-anchored, on HEK293/hLEPR-GPI cells (human, UniProt P48357 22-839, GPI anchor at the C-terminus ; GPI anchor at the C-terminus, added through the carboxypeptidase M signal peptide. The N-terminal myc-myc tag is not written.); test: FACS, 200 nM antibody on HEK293/hLEPR-GPI cells, no Leptin
T2 sequence: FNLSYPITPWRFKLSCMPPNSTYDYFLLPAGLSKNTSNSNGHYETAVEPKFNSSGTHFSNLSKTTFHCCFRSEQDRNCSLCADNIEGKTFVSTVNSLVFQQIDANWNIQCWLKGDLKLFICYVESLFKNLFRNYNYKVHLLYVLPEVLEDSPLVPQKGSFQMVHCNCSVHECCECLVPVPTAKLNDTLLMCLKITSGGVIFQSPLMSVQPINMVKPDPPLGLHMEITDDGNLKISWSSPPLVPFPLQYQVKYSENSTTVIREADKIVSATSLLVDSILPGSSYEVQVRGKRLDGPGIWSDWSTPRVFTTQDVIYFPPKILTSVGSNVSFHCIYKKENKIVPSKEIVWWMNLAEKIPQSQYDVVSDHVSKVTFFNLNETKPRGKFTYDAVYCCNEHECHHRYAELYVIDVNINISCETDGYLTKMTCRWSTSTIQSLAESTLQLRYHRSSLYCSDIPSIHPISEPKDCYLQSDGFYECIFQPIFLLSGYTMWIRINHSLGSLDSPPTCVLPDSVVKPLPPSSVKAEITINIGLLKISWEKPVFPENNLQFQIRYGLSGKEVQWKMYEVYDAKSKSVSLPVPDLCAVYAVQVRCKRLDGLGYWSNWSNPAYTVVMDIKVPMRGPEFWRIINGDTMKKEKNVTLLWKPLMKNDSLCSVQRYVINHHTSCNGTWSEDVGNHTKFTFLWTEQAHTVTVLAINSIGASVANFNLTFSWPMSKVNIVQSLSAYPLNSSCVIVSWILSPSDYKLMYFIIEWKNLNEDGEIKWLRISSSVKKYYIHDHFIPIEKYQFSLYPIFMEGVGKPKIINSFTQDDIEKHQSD
Protocol: (§1) For the FACS analysis, 0.5×10^6 cells/well of HEK293 parental cells, HEK293/Stat3-luc/gp130-2 X Sort cells, and HEK293/hLEPR-GPI cells, were incubated with 200 nM of the conventional antibodies against either GP130 or LEPR or with LEPRxGP130 bispecific antibodies, along with isotype control antibodies at 4° C. in PBS (without calcium and magnesium) containing 2% FBS.
(§2) Cells were fixed using BD CytoFix™ (Becton Dickinson, #554655) and analyzed on an IQue® (Intellicyt) Flow Cytometer. Unstained and secondary antibody alone controls were also tested for all cell lines. The results were analyzed using ForeCyt® (IntelliCyt) and FlowJo version 10 softwares to determine the geometric means of fluorescence for viable cells.

[3] = target: T2, extracellular domain of human LEPR, …; test: FACS, 200 nM antibody on HEK293/hLEPR-GPI cells, 1 µM Leptin
Protocol: as §1, §2

IC50 [1]: 644 pM
B1: MAb16666 (antibody, V domains shown)
VH: EVQLVESGGGLVQSGGSLRLSCAASGFTFSRYEMNWVRQAPGKGLEWVAYISNTGTTRDYSDSVKGRFTISRDNAKNSLYLQMSSLRVEDTAVYYCVREKFSGTSDWFDPWGQGTLVTVSS
VL: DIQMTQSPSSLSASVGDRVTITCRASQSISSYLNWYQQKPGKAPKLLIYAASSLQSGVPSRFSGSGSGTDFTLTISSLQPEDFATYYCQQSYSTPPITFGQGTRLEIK
notes: hIgG4 isotype control used

Binding Ratio, normalized to unstained sample (FL4-A) [2]: 4420 fold | Binding Ratio, normalized to unstained sample (FL4-A) [3]: 3600 fold
B2: bsAb21236D (bispecific antibody, V domains shown)
VH 1: QVQLQESGPGLVKPSQTLSLTCTVSGGSISSGGDYWSWIRQLPGKGLEWIGYIYYSGSAYYNPSLKSRGTISIDTSKNQFSLKLTSVTAADTAVYFCVKLRFLEWFLGGWFGPWGQGTLVTVSS
VH 2: QVQLVESGGGLVKPGGSLRLSCAASGFTFSDYYMTWIRQTPGKGLDWVSYISSSGTNKYNADSVKGRFTISRDNAKNSLYLQMNSLRAEDTAVYYCVRDPPWGMDVWGQGTTVTVSS
VL: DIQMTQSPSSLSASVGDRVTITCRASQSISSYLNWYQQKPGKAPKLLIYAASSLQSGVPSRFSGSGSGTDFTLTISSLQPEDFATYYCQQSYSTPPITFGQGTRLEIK
notes: LEPR x GP130 bispecific with common light chain; also called H4H21236D; bsAb21236 (LEPR × GP130)

Binding Ratio, normalized to unstained sample (FL4-A) [2]: 6320 fold | Binding Ratio, normalized to unstained sample (FL4-A) [3]: 5930 fold
B3: bsAb21237D (bispecific antibody, V domains shown)
VH 1: EVQLVESGGGLVQPGGSLRLSCAASGFTFSNYGMTWVRQAPGKGLEWVSAITGGGGSTYYSNSVKGRFTISRDNSKNTVYLRMNSVRAEDTAVYYCAKYKWNFVDDWGQGTTVTVSS
VH 2: B2 VH 2
VL: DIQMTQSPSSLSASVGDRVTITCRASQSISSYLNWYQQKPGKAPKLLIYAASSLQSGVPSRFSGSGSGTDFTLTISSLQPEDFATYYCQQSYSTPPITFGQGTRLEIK
notes: LEPR x GP130 bispecific with common light chain; also called H4H21237D; bsAb21237 (LEPR × GP130)
